Among the data in PMC10745693 are pairwise LHCII-LHCII interaction energy J values, retold here.

Where two headings read alike, the source gives them in different places.

The target in assay [1] is light-harvesting complex II (LHCII) trimer (spinach).
For assay [2] the target is unchanged. The source holds these as a separate data set.

For “light-harvesting complex II (LHCII) trimer”, the pairwise LHCII-LHCII interaction energy J was -7.2 kBT in assay [1] and -5.4 kBT in assay [2].
